From the supplement of paper PMC9170038

Tested on: MS2 coat protein
Experiment: apparent KD of MS2 coat protein; designed switch direction (-1 OFF switch, 1 ON switch): 1; higher = weaker reporter binding
Method in brief: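 For each design, the apparent KD is the median over clusters of curves fitted to normalised cluster fluorescence. Clusters held RNA switches with common flanks, transcribed on Illumina chips by stalled E. coli RNA polymerase. These were titrated with SNAP-549-labelled MS2 coat protein, doubling from 0.7 or 1.5 nM to 3 µM, without input, with 200 uM small-molecule ligand, or with an oligonucleotide input.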

[1] = input ligand: microRNA oligo, concentration not stated
[2] = Eterna round: R95, input ligand: FMN 200 uM
[3] = Eterna round: R95, input ligand: microRNA oligo, concentration not stated
[4] = Eterna round: R95, input ligand: none

Row | Sequence | apparent KD of MS2 coat protein (input ligand: FMN 200 uM) | apparent KD of MS2 coat protein [1] | apparent KD of MS2 coat protein (input ligand: none) | apparent KD of MS2 coat protein [2] | apparent KD of MS2 coat protein [3] | apparent KD of MS2 coat protein [4]
1 | GCUAGAAAUAAAGCCAACAUGAGGAUCACCCAUGUAUGUUGGCAGGAUAUCGUUUGCAAAGCAAACGAGAAGGGCUAAACUAGC [Mat - Same State NG 3 - JL Mod - D5] (Eterna round: R96, puzzle: Same State NG 3) | 141 nM | 138 nM | 147 nM |  |  | 
2 | GCUAGGAAUAAAGCCAACAUGAGGAUCACCCAUGUAUGUUGGUAGGAUAUCGUUUGCUUUGCAAACGAGAAGGGCUAACCUAGC [JL SSNG3 1.24] (Eterna round: R96, puzzle: Same State NG 3) | 74.6 nM | 64.5 nM | 67.5 nM |  |  | 
3 | GCUAGGAUAUGCAGAGGAUCACCCUGUAGAAGGAGCAUUAGCUAGGAUAUGCAGAGGAUCACCCUGUAGAAGGAGCACUACUCU [pwkr ssNG3 DX 2xF5 +2xFMN.1] (Eterna round: R96, puzzle: Same State NG 3) | 445 nM | 205 nM | 248 nM |  |  | 
4 | GCUAGUAUUAUUGCUAACAUGAGGAUCACCCAUGUAUGUUGGCAGGAUAUCGUUUGCUUUGCAAACGAGAAGGGCUAAACUAGC [JL SSNG3 1.05] (Eterna round: R96, puzzle: Same State NG 3) | 25.8 nM | 65.4 nM | 71.7 nM |  |  | 
5 | GCUCGAUGAAAGUCCUACAUGAGGAUCACCCAUGUACGUGGGCAGGAUAUCUACAUGCAGAGUGUAGAGAAGGGCCCAUCGAGC [SameState NG3 #60] (Eterna round: R96, puzzle: Same State NG 3) | 18.6 nM | 22.6 nM | 34.9 nM |  |  | 
6 | GCUCGAUGAUAGGCCUACAUGAGGAUCACCCAUGUAAGUGGGCAGGAUAUCUAAAUGCAGAAUGUAGAGAAGGGCCCGUCGAGC [SameState NG3 #54] (Eterna round: R96, puzzle: Same State NG 3) | 612 nM | 239 nM | 1460 nM |  |  | 
7 | GCUCGAUGAUAGGCCUACAUGAGGAUCACCCAUGUGACUGGGCAGGAUAUCUAAAUGCAGAAUGUAGAGAAGGGCCCGUCGAGC [SameState NG3 #52] (Eterna round: R96, puzzle: Same State NG 3) | 269 nM | 69.5 nM | 409 nM |  |  | 
8 | GCUCGGACGAUGACCCACAUGAGGAUCACCCAUGUGCUUGGGCAGGAUAUCUAGAUUAAGGAUGUAGAGAAGGGUCGACCGAGC [SameState NG3 #29] (Eterna round: R96, puzzle: Same State NG 3) | 345 nM | 90.3 nM | 211 nM |  |  | 
9 | GCUCGUAUCACGACCGACAUGAGGAUCACCCAUGUAUGUUGGUAGGAUAUCUAUAUUAAGGAUAUAGAGAAGGGCCGAACGAGC [SameState NG3 #14] (Eterna round: R96, puzzle: Same State NG 3) | 23.5 nM | 24.8 nM | 30.1 nM |  |  | 
10 | GCUCGUAUGAUGACCGACAUGAGGAUCACCCAUGUGUGUCGGUAGGAUAUCUAUAUUAAGGAUAUAGAGAAGGGCCCAACGAGC [SameState NG3 #18] (Eterna round: R96, puzzle: Same State NG 3) | 114 nM | 103 nM | 158 nM |  |  | 
11 | GCUGCAAUAAACGCCUACAUGAGGAUCACCCAUGUAUGUAGGCAGGAUAUCGUAUGCAAAGCAUACGAGAAGGGCUGUAGUAGC [Mat - Same State NG 3 - JL Mod - D39] (Eterna round: R96, puzzle: Same State NG 3) | 65.3 nM | 97.3 nM | 112 nM |  |  | 
12 | GCUGCAUGGGCAGGAUAUGGGUCCAAAGCGCAAGUGCGCUUUGGUACAUGAGGAUCACCCAUGUCCCAGAAGGGCCCAAGCGGC [Inorgeesbi] (Eterna round: R96, puzzle: Same State NG 2) | 16.4 nM | 87.9 nM | 145 nM |  |  | 
13 | GCUGCGUUUAACGCCUACAUGAGGAUCACCCAUGUAUGUAGGCAGGAUAUCGUUUGCUUUGCAAACGAGAAGGGCUGUAGUAGC [salish99_SSNG3_R04_005] (Eterna round: R96, puzzle: Same State NG 3) | 41.6 nM | 85 nM | 73.8 nM |  |  | 
14 | GCUGGAAACCACAUGAGGAUCACCCAUGUUCCGGAAACGGCACAGGAUAUCUGUCCGAAAAGGUCAGAGAAGGGUGGAACCAGC [Fiskers NG3ss - 82] (Eterna round: R96, puzzle: Same State NG 3) | 221 nM | 350 nM | 393 nM |  |  | 
15 | GCUGGAACUCACAUGAGGAUCACCCAUGUUCCGGAAACGGCACAGGAUAUCUGUCCGAAAAGGUCAGAGAAGGGUGUAACCAGC [Fiskers NG3ss - 87] (Eterna round: R96, puzzle: Same State NG 3) | 137 nM | 51 nM | 88.8 nM |  |  | 
16 | GGAAACAAGAGAGGAUAUGCAGAGGAUCACCCUGUAGAAGGCUCCCUAGAGAGGAUAUGCAGAGGAUCACCCUGCAGAAGGCUC [pwkr ssNG DX.18] (Eterna round: R96, puzzle: Same State NG 1) | 227 nM | 27.7 nM | 89.1 nM |  |  | 
17 | GGAGAACAUGAGGAUCACCCAUGUGGAUGGGCGCUAGGAUAUGCGAGAGGGUGAAGAGAAGCAGAAGGAGUGGAUA [JR_SS1_Sub036] (Eterna round: R96, puzzle: Same State 1) | 130 nM | 96.6 nM | 147 nM |  |  | 
18 | GGAGAACAUGAGGAUCACCCAUGUGGAUGGGCGCUAGGAUAUGCGAGAGGGUGAAGAGAAGCAGAAGGAGUGGAUA [JR_SS1_Sub036] (puzzle: Same State 1) |  |  |  | 101 nM | 104 nM | 161 nM
19 | GGAGCCGGCACCGAGGAUAUUCAUAUUAAAACAUGAGGAUCACCCAUGUAGGCCAGAAGGCUUUGGGAGAAGGCGGAUCGGCUCG [Xeonanis - 3] (Eterna round: R96, puzzle: Same State 2) | 22.1 nM | 148 nM | 568 nM |  |  | 
20 | GGAGCCGGCACCGAGGAUAUUCAUAUUAAAACAUGAGGAUCACCCAUGUAGGCCAGAAGGCUUUGGGAGAAGGCGGAUCGGCUCG [Xeonanis - 3] (puzzle: Same State 2) |  |  |  | 25.3 nM | 310 nM | 546 nM
21 | GGAGCCGGCCUAGGAUAUUUCAUAAUUUAACAUGAGGAUCACCCAUGUAGGCCAGAAGGCCUUGGGAAGAAGGAGGUCGGCUCC [Loop Effect - U26,U27,U28] (Eterna round: R96, puzzle: Same State NG 2) | 17.4 nM | 53.6 nM | 76.9 nM |  |  | 
22 | GGAGCCGGCCUAGGAUAUUUCAUUAUUAAACAUGAGGAUCACCCAUGUAGGCCAGAAGGCCUUGGGAAGAAGGAGGUCGGCUCC [Loop Effect - U24,U26,U28] (Eterna round: R96, puzzle: Same State NG 2) | 17.1 nM | 49.6 nM | 68.5 nM |  |  | 
